From article PMC6576158

Molecular target: mouse Nicastrin I241C mutant (mouse) (UniProt P57716)
Experiment: cross-linking

Chain of UniProt P57716 (P57716 28-708 I241C): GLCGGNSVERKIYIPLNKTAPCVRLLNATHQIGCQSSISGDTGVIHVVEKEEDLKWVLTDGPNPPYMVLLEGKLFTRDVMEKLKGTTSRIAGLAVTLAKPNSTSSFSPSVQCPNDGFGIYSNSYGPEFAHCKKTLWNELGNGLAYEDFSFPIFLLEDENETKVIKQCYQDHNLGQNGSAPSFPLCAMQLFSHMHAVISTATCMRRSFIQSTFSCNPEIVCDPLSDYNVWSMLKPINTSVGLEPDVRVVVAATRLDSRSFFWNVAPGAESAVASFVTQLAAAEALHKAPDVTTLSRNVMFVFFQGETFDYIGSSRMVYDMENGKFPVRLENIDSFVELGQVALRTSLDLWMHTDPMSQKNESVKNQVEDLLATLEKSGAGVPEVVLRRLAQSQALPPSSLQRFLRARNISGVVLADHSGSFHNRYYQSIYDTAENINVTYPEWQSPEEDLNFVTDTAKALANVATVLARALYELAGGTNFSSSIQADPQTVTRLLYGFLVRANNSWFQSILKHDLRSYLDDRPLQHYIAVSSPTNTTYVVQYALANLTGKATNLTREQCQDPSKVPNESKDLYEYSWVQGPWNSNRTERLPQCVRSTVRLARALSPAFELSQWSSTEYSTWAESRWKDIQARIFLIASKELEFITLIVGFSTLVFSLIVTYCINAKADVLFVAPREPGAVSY

percent of the substrate cross-linked to NCT (disulfide bond): 15.4%
Substance: APPC99‐3xFLAG‐K28C (domain or fragment)
